Publication PMC10563435, “Anti-GARP Antibodies Inhibit Release of TGF-β by Regulatory T Cells via Different Modes of Action, but Do Not Influence Their Function In Vitro” (ImmunoHorizons, 2023)
Blank lines part the entries; values can stand above or below the binder they belong to.

Legend:
Conditions in all cases: both partners purified
[1] = target: T1, GARP/L-TGF-β complex (recombinant) (Homo sapiens (deposit 8C7H), UniProt Q14392;P01137); experiment: BLI; Abs (10 µg/ml) captured for 180 s on AMC or AHC (anti-murine or anti-human IgG Fc capture) tips; 10 µg/ml GARP, GARP/L-TGF-β or L-TGF-β in solution for 180 s, 600 s dissociation; PBS
T1 construct: GARP (LRRC32) extracellular domain, aa 20-627; latent TGF-β1 (LAP and mature TGF-β), aa 30-390; The introduction says that L-TGF-β is linked to GARP by two disulfide bonds and is cleaved into LAP and mTGF-β; also called L-TGF-β/GARP complex; GARP-Fc-His/L-TGF-β; source: HEK293-E6, transiently transfected, purified from supernatant (Ni-NTA, SEC; Fc-His removed with papain and protein A beads); not …

[2] = target: T2, GARP extracellular domain (aa 20-627), Fc-His part cleaved off (UniProt Q14392); experiment: as above
T2 construct: GARP (LRRC32) extracellular domain, aa 20-627; also called LRRC32; GARP-Fc-His; source: HEK293-E6, transiently transfected, purified from supernatant (Ni-NTA, SEC; Fc-His removed with papain and protein A beads); not shown: Fc (human IgG1), C-terminal, cleaved; His tag, C-terminal, cleaved
T2 sequence (Q14392 20-627): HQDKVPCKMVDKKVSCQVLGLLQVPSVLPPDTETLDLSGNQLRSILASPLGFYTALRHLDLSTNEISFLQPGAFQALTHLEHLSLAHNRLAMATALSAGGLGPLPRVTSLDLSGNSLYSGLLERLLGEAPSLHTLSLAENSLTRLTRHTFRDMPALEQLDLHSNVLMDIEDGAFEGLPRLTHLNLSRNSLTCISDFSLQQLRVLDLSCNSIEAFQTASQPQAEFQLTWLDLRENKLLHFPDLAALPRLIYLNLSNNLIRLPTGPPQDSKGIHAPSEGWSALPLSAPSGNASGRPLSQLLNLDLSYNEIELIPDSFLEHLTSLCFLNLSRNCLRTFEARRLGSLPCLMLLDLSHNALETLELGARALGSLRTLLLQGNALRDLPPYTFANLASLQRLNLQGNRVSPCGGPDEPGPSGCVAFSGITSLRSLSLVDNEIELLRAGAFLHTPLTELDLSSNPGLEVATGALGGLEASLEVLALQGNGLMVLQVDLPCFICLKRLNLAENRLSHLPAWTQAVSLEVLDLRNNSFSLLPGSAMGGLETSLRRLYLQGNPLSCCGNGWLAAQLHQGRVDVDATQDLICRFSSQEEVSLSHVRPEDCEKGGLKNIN

[3] = target: T3, His-L-TGF-β1 (N-terminal His tag followed by aa 30-390 of L-TGF-β1) (Homo sapiens (deposit 8C7H), UniProt P01137); experiment: as above
T3 construct: latent TGF-β1 (LAP and mature TGF-β), aa 30-390; The introduction says that the proprotein is cleaved by a furin-like convertase into LAP and mTGF-β, which stay noncovalently associated; also called latent form of TGF-β; source: HEK293-E6, transiently transfected, purified from supernatant (Ni-NTA, SEC)
T3 sequence (P01137 30-390): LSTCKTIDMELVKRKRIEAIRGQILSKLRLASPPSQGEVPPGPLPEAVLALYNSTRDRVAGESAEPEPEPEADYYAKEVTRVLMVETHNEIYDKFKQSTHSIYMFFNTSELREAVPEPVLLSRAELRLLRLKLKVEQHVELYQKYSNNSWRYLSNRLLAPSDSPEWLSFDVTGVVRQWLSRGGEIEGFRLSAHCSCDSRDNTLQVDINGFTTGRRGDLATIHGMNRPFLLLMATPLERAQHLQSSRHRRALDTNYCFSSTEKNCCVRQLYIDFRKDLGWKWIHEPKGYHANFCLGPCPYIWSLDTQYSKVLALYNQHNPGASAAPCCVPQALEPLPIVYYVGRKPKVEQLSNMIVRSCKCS

[4] = target: T1, GARP/L-TGF-β complex (recombinant); experiment: cryo-EM structure; GARP/L-TGF-β incubated 30 min at 4°C with an excess of Fab, complex purified by SEC in 15 mM HEPES (pH 7.5), 100 mM NaCl; LHG-10 map 2.7 Å with atomic model; 28G11 map 7.5 Å with docked models of PDB 6GFF
[5] = target: T4, L-TGF-β1 (aa 30-390), as it stands in the GARP/L-TGF-β complex (UniProt P01137); experiment: as above
T4 construct: latent TGF-β1 (LAP and mature TGF-β), aa 30-390; Untagged construct, used only within the complex m3; The introduction says it is cleaved into LAP and mTGF-β; also called LAP and mTGF-β; source: HEK293-E6, transiently transfected, purified as the complex with GARP
T4 sequence (P01137 30-390, one chain of several): as the sequence (P01137 30-390) above

B1: LHG-10 (anti-L-TGF-β/GARP Ab), full-length antibody (antibody, V domains shown)
VH: EVQLVQPGAELRNSGASVKVSCKASGYRFTSYYIDWVRQAPGQGLEWMGRIDPEDGGTKYAQKFQGRVTFTADTSTSTAYVELSSLRSEDTAVYYCARNEWETVVVGDLMYEYEYWGQGTQVTVSS
VL: DIQMTQSPSSLSASLGDRVTITCQASQSISSYLAWYQQKPGQAPNILIYGASRLKTGVPSRFSGSGSGTSFTLTISGLEAEDAGTYYCQQYASVPVTFGQGTKVELK
notes: source: HEK293-E6, transiently transfected, purified (protein A MabSelect SuRe)
- binding result [1]: binds
- binding result [2]: no binding (tested: 10 µg/ml)
- binding result [3]: no binding (tested: 10 µg/ml)

B4: Fab 28G11 (Fab, V domains shown)
VH: EVKLVESGGGLVQPGGSLSLSCAASGFTFTDYYMSWVRQPPGKALEWLGFIRNKPNGYTTEYSASVKGRFTISRDNSQSILYLQMNVLRAEDSATYYCARYTGGGYFDYWGQGTTLTVSS
VL: DIQMTQTTSSLSASLGDRLTISCRASQDISNYLNWYQQKPDGTVKLLIYYTSRLHSGVPSRFSGSGSGTDYSLTISNLEQADIATYFCQQGDTLPWTFGGGTKLEIK
notes: Fab part of the heavy chain of m5; The cryo-EM map is deposited in EMDB, without coordinates; As the light chain of m5; source: HEK293-E6 antibody cleaved with immobilized papain, Fc removed with protein A beads
- stoichiometry N [4]: 1
- binding result [5]: binds

Continued, values first:

- binding result [4]: binds
B2: Fab LHG-10 (Fab, V domains shown)
VH: B1 VH
VL: B1 VL
notes: Fab part of the heavy chain of m8; As the light chain of m8; source: HEK293-E6 antibody cleaved with immobilized papain, Fc removed with protein A beads

- binding result [2]: no binding (tested: 10 µg/ml)
- binding result [3]: binds
B3: 28G11 (anti-L-TGF-β / anti-LAP Ab), full-length antibody (antibody, V domains shown)
VH: B4 VH
VL: B4 VL
notes: A cryo-EM map of its Fab complex is deposited in EMDB, without coordinates; source: HEK293-E6, transiently transfected, purified (protein A MabSelect SuRe)

- binding result [1]: binds
- binding result [2]: no binding (tested: 10 µg/ml)
- binding result [3]: no binding (tested: 10 µg/ml)
B5: MHG-8 (anti-L-TGF-β/GARP Ab), full-length antibody (antibody, V domains shown)
VH: QVQLKESGPGLVAPSQSLSITCTVSGFSLTGYGINWVRQPPGKGLEWLGMIWSDGSTDYNSVLTSRLRISKDNSNSQVFLKMNSLQVDDTARYYCARDRNYYDYDGAMDYWGQGTSVTVSS
VL: DIQVTQSSSYLSVSLGDRVTITCKASDHIKNWLAWYQQKPGIAPRLLVSGATSLEAGVPSRFSGSGSGKNFTLSITSLQTEDVATYYCQQYWSTPWTFGGGTTLEIR
notes: as for B1
